The text below walks through data of patent publication US20220041711A1 (NGM BIOPHARMACEUTICALS, published 2022).

Assay [1] deals with T1, human MARCO (form in the assay not stated) (human, UniProt Q9UEW3 79-520, limits assumed).
T1 sequence: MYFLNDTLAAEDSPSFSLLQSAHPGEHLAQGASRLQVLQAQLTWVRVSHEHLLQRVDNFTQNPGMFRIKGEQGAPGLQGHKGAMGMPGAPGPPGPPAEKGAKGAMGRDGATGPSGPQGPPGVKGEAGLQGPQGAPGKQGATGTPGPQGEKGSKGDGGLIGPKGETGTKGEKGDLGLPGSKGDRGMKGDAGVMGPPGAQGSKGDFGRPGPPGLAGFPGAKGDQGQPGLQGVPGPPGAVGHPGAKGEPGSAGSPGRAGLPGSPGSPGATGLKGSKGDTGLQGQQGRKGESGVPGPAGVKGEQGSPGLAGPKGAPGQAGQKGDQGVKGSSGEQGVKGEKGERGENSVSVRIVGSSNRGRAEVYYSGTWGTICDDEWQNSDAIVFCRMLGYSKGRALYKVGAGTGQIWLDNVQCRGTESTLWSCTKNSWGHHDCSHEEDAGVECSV
The assay is described as follows: ELISA, FACS and IHC screening. For orientation: In an ELISA, binding on a coated surface is turned into a signal by an enzyme label.

In assay [2] the target is T2, collagen 17A1 (COL17A1) expressed on 721.221 cells (UniProt Q9UMD9 1-1497, limits assumed).
T2 construct: whole, on cells
T2 sequence (looked up): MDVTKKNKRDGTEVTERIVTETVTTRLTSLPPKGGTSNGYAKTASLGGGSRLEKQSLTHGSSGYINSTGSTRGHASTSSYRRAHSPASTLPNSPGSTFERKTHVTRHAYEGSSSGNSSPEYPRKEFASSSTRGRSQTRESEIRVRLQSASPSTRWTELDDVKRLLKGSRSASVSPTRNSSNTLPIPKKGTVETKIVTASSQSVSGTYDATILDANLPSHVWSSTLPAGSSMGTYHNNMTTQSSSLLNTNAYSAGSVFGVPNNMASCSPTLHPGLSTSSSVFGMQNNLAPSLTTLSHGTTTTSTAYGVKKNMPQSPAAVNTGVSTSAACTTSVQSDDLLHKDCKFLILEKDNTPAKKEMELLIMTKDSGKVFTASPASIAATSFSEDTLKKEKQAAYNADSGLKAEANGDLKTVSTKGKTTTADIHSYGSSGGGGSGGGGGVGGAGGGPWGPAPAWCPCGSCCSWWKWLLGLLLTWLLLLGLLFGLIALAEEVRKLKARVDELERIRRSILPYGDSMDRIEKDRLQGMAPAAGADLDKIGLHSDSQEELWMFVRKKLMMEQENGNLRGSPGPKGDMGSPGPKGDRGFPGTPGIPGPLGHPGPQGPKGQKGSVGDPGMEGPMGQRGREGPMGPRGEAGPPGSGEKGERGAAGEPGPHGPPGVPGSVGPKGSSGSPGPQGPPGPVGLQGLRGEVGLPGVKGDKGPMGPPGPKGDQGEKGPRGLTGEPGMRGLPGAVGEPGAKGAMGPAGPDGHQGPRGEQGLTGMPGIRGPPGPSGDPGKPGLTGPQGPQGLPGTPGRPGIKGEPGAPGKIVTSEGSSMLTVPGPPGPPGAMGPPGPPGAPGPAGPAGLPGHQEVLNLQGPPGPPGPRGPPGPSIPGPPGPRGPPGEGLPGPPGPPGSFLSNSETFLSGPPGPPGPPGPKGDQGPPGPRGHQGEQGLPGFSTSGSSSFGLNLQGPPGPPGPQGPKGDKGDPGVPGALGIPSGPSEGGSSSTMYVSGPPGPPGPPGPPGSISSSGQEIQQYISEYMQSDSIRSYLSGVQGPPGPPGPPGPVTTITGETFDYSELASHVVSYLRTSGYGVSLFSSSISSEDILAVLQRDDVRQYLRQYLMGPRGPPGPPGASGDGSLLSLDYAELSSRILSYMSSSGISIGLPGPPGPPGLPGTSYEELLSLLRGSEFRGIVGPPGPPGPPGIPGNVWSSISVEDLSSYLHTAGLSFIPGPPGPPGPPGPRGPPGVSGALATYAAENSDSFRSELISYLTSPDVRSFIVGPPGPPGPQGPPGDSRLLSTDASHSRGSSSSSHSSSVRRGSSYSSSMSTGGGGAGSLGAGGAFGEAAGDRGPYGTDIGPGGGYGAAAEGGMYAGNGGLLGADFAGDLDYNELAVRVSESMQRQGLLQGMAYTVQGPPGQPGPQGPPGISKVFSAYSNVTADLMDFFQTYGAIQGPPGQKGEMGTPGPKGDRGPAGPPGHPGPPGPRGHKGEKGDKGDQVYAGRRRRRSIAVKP
Briefly: IHC on 721.221 stable cell lines; '-' = no detectable signal.

Assay [3] concerns the target T3, COL13A1 expressed on transfected 293T cells (UniProt Q5TAT6 1-717, limits assumed).
T3 construct: whole, on cells
The assay is described as follows: IHC on 293T-transfected cell pellets; '-' = no detectable signal.

The target in assay [4] is T4, MSR1 expressed on transfected 293T cells (UniProt P21757 1-451, limits assumed).
T4 construct: whole, on cells
T4 sequence (looked up): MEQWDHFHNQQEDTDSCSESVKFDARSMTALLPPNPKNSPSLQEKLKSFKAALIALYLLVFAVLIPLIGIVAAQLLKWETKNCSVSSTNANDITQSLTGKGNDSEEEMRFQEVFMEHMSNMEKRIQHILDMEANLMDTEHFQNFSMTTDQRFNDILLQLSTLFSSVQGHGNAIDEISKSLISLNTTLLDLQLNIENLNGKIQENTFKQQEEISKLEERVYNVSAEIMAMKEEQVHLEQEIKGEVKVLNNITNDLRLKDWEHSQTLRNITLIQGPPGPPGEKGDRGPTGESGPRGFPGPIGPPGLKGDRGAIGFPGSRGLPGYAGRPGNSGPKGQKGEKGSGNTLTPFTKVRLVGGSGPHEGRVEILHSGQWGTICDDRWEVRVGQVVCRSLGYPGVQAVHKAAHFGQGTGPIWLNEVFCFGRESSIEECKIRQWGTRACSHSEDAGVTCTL
Briefly: flow cytometry on 293T-MSR1 cells, Alexa647 anti-mouse IgG secondary. (Flow cytometry measures light scatter and fluorescence of single cells or particles in a stream.)

Assay [5] addresses T5, CD163L expressed on transfected 293T cells (UniProt Q9NR16 41-1453).
T5 construct: whole, on cells
The assay is described as follows: flow cytometry on 293T-CD163L cells, Alexa647 anti-mouse IgG secondary.

Assay [6] concerns the target T6, SCARA5 expressed on transfected 293T cells (UniProt Q6ZMJ2 1-495, limits assumed).
T6 construct: whole, on cells
The assay is described as follows: flow cytometry on 293T-SCARA5 cells, Alexa647 anti-mouse IgG secondary.

The target of assay [7] is T7, human MARCO expressed on cells (721.221-MARCO, 293T-MARCO) (human, UniProt Q9UEW3 1-520).
T7 construct: also called 721.221 cells expressing MARCO
T7 sequence: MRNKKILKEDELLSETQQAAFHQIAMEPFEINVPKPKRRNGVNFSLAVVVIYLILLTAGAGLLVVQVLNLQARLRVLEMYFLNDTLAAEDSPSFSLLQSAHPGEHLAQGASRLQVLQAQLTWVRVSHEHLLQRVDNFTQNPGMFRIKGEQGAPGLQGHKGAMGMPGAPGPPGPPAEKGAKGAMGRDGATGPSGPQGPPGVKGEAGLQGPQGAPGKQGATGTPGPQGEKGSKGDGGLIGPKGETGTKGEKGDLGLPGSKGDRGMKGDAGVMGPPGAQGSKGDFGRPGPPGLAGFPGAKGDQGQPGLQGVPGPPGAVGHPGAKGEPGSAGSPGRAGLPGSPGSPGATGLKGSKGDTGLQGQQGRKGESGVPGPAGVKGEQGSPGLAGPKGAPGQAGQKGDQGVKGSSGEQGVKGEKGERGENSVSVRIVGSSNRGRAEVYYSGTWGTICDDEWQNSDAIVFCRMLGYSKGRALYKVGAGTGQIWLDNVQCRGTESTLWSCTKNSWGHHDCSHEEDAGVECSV
Briefly: flow cytometry, antibody at 2.5 µg/mL, Alexa647 anti-mouse IgG secondary.

T3 sequence (Q5TAT6 whole entry): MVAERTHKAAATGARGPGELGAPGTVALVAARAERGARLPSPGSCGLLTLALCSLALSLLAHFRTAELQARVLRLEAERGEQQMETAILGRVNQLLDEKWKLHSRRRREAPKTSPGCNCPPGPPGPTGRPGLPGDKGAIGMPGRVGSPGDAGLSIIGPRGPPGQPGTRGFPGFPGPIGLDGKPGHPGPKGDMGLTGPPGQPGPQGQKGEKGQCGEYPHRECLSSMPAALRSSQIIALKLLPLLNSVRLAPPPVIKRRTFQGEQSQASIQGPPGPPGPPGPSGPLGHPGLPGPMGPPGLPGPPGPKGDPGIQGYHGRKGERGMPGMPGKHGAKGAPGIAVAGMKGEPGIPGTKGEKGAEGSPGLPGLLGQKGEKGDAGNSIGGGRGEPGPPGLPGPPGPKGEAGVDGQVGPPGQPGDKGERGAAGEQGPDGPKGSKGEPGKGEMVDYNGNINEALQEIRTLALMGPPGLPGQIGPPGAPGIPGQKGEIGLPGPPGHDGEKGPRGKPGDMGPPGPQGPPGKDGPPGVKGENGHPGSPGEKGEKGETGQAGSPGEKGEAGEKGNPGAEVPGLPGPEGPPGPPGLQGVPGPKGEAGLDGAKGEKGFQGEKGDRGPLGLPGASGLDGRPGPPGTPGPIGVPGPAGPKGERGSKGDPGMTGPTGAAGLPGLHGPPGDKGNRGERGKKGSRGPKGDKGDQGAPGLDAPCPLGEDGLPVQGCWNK
T6 sequence (Q6ZMJ2 whole entry): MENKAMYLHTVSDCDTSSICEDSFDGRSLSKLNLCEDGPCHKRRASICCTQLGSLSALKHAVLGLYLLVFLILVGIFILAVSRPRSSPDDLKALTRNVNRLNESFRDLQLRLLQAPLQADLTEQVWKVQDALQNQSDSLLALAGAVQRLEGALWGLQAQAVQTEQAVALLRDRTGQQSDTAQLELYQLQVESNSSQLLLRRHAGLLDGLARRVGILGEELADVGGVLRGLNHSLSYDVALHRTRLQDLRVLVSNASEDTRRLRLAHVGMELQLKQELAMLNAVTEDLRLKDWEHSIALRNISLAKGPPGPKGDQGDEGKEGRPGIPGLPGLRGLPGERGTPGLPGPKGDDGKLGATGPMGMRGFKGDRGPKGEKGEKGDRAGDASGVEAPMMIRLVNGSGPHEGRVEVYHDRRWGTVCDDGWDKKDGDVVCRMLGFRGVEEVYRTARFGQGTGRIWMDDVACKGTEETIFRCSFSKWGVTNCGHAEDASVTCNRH
T5 sequence (Q9NR16 41-1453): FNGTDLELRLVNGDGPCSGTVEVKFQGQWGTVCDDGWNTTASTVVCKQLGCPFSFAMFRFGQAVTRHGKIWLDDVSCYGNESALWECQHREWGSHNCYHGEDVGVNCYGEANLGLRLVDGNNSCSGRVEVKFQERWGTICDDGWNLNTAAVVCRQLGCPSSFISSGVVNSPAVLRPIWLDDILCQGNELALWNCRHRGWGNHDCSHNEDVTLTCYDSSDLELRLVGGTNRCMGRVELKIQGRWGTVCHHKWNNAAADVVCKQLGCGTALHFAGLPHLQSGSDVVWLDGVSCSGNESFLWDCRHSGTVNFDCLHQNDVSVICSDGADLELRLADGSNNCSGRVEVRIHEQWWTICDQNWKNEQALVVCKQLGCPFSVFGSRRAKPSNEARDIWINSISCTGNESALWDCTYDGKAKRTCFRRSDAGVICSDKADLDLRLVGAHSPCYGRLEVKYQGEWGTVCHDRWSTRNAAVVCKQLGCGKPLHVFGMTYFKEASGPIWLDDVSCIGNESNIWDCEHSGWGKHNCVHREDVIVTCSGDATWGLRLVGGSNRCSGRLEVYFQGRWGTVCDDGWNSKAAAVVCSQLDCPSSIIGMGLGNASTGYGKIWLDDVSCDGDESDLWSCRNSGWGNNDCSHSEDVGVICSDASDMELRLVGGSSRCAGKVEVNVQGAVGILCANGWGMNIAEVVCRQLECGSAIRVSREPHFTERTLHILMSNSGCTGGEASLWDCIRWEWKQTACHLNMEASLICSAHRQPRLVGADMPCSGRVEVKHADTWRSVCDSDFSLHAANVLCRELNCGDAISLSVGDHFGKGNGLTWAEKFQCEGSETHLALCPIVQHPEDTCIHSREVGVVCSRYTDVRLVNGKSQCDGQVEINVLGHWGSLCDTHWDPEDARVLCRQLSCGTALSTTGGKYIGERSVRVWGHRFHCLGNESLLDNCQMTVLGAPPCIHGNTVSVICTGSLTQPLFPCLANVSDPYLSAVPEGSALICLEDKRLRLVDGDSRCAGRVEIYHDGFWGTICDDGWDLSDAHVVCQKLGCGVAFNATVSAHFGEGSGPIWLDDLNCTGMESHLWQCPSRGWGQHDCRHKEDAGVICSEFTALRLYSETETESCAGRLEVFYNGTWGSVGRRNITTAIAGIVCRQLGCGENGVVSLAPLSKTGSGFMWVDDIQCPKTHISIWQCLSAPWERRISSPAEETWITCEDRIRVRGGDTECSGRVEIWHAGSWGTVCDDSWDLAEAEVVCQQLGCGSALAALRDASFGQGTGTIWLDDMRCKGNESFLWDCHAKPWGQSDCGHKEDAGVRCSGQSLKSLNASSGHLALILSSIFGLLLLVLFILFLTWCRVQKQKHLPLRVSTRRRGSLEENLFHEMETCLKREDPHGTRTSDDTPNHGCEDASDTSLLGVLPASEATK

B1: anti-MARCO antibody 6D8 (antibody, mouse IgG2a, kappa)
heavy: QVQLKESGPGLVAPSQSLSIACTVSGFSLTNYAISWVRQPPGKGLEWLGVIWTGGGTNYNSTLKSRLSISKDNSKSQVFLKMNSLQTDDTARYNCARNSGDWYFDVWGPGTTVTVSSAKTTAPSVYPLAPVCGDTTGSSVTLGCLVKGYFPEPVTLTWNSGSLSSGVHTFPAVLQSDLYTLSSSVTVTSSTWPSQSITCNVAHPASSTKVDKKIEPRGPTIKPCPPCKCPAPNAAGGPSVFIFPPKIKDVLMISLSPIVTCVVVDVSEDDPDVQISWFVNNVEVHTAQTQTHREDYNSTLRVVSALPIQHQDWMSGKEFKCKVNNKDLGAPIERTISKPKGSVRAPQVYVLPPPEEEMTKKQVTLTCMVTDFMPEDIYVEWTNNGKTELNYKNTEPVLDSDGSYFMYSKLRVEKKNWVERNSYSCSVVHEGLHNHHTTKSFSRTPGK
light: DIVMSQSPSSLAVSVGEKVTMSCKSSQSLLYSSNQKNYLAWYQQKPGQSPHLLIYWASTRESGVPDRFIGSGSGTDFTLTISSVKAEDLAVYYCQQYYDYPPTFGSGTKLEIKRADAAPTVSIFPPSSEQLTSGGASVVCFLNNFYPKDINVKWKIDGSERQNGVLNSWTDQDSKDSTYSMSSTLTLTKDEYERHNSYTCEATHKTSTSPIVKSFNRNEC
notes: detected with anti-mouse IgG; copies: 2 + 2
In the case of B1, the binding result in assay [1] was “binds”; in assay [2], “no binding”; in assay [3] it was “no binding”; in assay [4], “no binding (tested: 2.5 µg/mL)”; in assay [5] it was “no binding (tested: 2.5 µg/mL)”; in assay [6], “no binding (tested: 2.5 µg/mL)”. The binding result in assay [7] is listed as “binds”.

B2: anti-MARCO antibody 15A3 (antibody, mouse IgG2a, kappa)
heavy: EIQLQQSGPELVKPGASVKVSCKASGYSFTDYNMYWVKQSHGKSLEWIGYIDPYNGGTSYNQKFKGKATLTVDKSSSTAFMHLNSLTSEDSAVYYCARLRSPYDYDRGDYVMDYWGQGTSVTVSSAKTTAPSVYPLAPVCGDTTGSSVTLGCLVKGYFPEPVTLTWNSGSLSSGVHTFPAVLQSDLYTLSSSVTVTSSTWPSQSITCNVAHPASSTKVDKKIEPRGPTIKPCPPCKCPAPNAAGGPSVFIFPPKIKDVLMISLSPIVTCVVVDVSEDDPDVQISWFVNNVEVHTAQTQTHREDYNSTLRVVSALPIQHQDWMSGKEFKCKVNNKDLGAPIERTISKPKGSVRAPQVYVLPPPEEEMTKKQVTLTCMVTDFMPEDIYVEWTNNGKTELNYKNTEPVLDSDGSYFMYSKLRVEKKNWVERNSYSCSVVHEGLHNHHTTKSFSRTPGK
light: DIVLTQSPASLAVSLGQRATISCRASKSVSTSGYTYMHWYQQKPGQPPKLLIYLASNLESGVPARFSGSGSGTDFTLNIHPVEEEDAATYYCQHSRELPLTFGAGTKLELKRADAAPTVSIFPPSSEQLTSGGASVVCFLNNFYPKDINVKWKIDGSERQNGVLNSWTDQDSKDSTYSMSSTLTLTKDEYERHNSYTCEATHKTSTSPIVKSFNRNEC
notes: as for B1
Regarding B2, the binding result is listed as “binds” in assay [1]; “no binding” in assay [2]; “no binding” in assay [3]; “no binding (tested: 2.5 µg/mL)” in assay [4]; “no binding (tested: 2.5 µg/mL)” in assay [5]; “no binding (tested: 2.5 µg/mL)” in assay [6]. In assay [7], the binding result is recorded as “binds”.

B3: anti-MARCO antibody 10G4 (antibody, mouse IgG2a, kappa)
heavy: QVQLKESGPGLVAPSQSLSITCTVSGFSLSSYPISWVRQPPGKGLEWLGIIWTGGGTNYNSALKSRLSISKDNSKSQVFLKMNSLQTDDTARYYCASQNWDVNSALDYWGQGTSVTVSSAKTTAPSVYPLAPVCGDTTGSSVTLGCLVKGYFPEPVTLTWNSGSLSSGVHTFPAVLQSDLYTLSSSVTVTSSTWPSQSITCNVAHPASSTKVDKKIEPRGPTIKPCPPCKCPAPNAAGGPSVFIFPPKIKDVLMISLSPIVTCVVVDVSEDDPDVQISWFVNNVEVHTAQTQTHREDYNSTLRVVSALPIQHQDWMSGKEFKCKVNNKDLGAPIERTISKPKGSVRAPQVYVLPPPEEEMTKKQVTLTCMVTDFMPEDIYVEWTNNGKTELNYKNTEPVLDSDGSYFMYSKLRVEKKNWVERNSYSCSVVHEGLHNHHTTKSFSRTPGK
light: DIQMTQSPASLSVSVGETVTITCRASENIYSNLAWYQQKQGKSPQLLVYTATNLADGVPSRFSGSGSGTQYSLRINRLQSEDFGNYYCQHFWNAPWTFGGGTKLEIKRADAAPTVSIFPPSSEQLTSGGASVVCFLNNFYPKDINVKWKIDGSERQNGVLNSWTDQDSKDSTYSMSSTLTLTKDEYERHNSYTCEATHKTSTSPIVKSFNRNEC
notes: as for B1
Take B3: the binding result in assay [1] is given as “binds”; in assay [2], “no binding”; in assay [3], “no binding”; in assay [4] it was “no binding (tested: 2.5 µg/mL)”; in assay [5], “no binding (tested: 2.5 µg/mL)”; in assay [6], “no binding (tested: 2.5 µg/mL)”. For the same molecule, the binding result in assay [7] is “binds”.
